Data reported in IntAct's records for PubMed 20133777.

B1: Receptor-type tyrosine-protein phosphatase T (Homo sapiens), O14522-1 (parent)
chain: MASLAALALSLLLRLQLPPLPGARAQSAAGGCSFDEHYSNCGYSVALGTNGFTWEQINTWEKPMLDQAVPTGSFMMVNSSGRASGQKAHLLLPTLKENDTHCIDFHYYFSSRDRSSPGALNVYVKVNGGPQGNPVWNVSGVVTEGWVKAELAISTFWPHFYQVIFESVSLKGHPGYIAVDEVRVLAHPCRKAPHFLRLQNVEVNVGQNATFQCIAGGKWSQHDKLWLQQWNGRDTALMVTRVVNHRRFSATVSVADTAQRSVSKYRCVIRSDGGSGVSNYAELIVKEPPTPIAPPELLAVGATYLWIKPNANSIIGDGPIILKEVEYRTTTGTWAETHIVDSPNYKLWHLDPDVEYEIRVLLTRPGEGGTGPPGPPLTTRTKCADPVHGPQNVEIVDIRARQLTLQWEPFGYAVTRCHSYNLTVQYQYVFNQQQYEAEEVIQTSSHYTLRGLRPFMTIRLRLLLSNPEGRMESEELVVQTEEDVPGAVPLESIQGGPFEEKIYIQWKPPNETNGVITLYEINYKAVGSLDPSADLSSQRGKVFKLRNETHHLFVGLYPGTTYSFTIKASTAKGFGPPVTTRIATKISAPSMPEYDTDTPLNETDTTITVMLKPAQSRGAPVSVYQLVVKEERLQKSRRAADIIECFSVPVSYRNASSLDSLHYFAAELKPANLPVTQPFTVGDNKTYNGYWNPPLSPLKSYSIYFQALSKANGETKINCVRLATKAPMGSAQVTPGTPLCLLTTGASTQNSNTVEPEKQVDNTVKMAGVIAGLLMFIIILLGVMLTIKRRRNAYSYSYYLSQRKLAKKQKETQSGAQREMGPVASADKPTTKLSASRNDEGFSSSSQDVNGFTDGSRGELSQPTLTIQTHPYRTCDPVEMSYPRDQFQPAIRVADLLQHITQMKRGQGYGFKEEYEALPEGQTASWDTAKEDENRNKNRYGNIISYDHSRVRLLVLDGDPHSDYINANYIDGYHRPRHYIATQGPMQETVKDFWRMIWQENSASIVMVTNLVEVGRVKCVRYWPDDTEVYGDIKVTLIETEPLAEYVIRTFTVQKKGYHEIRELRLFHFTSWPDHGVPCYATGLLGFVRQVKFLNPPEAGPIVVHCSAGAGRTGCFIAIDTMLDMAENEGVVDIFNCVRELRAQRVNLVQTEEQYVFVHDAILEACLCGNTAIPVCEFRSLYYNISRLDPQTNSSQIKDEFQTLNIVTPRVRPEDCSIGLLPRNHDKNRSMDVLPLDRCLPFLISVDGESSNYINAALMDSHKQPAAFVVTQHPLPNTVADFWRLVFDYNCSSVVMLNEMDTAQFCMQYWPEKTSGCYGPIQVEFVSADIDEDIIHRIFRICNMARPQDGYRIVQHLQYIGWPAYRDTPPSKRSLLKVVRRLEKWQEQYDGREGRTVVHCLNGGGRSGTFCAICSVCEMIQQQNIIDVFHIVKTLRNNKSNMVETLEQYKFVYEVALEYLSSF

Variants of: B1
Details: with paxi_human PXN

Variant	effect of a mutation on the interaction
D1074A	increasing interaction
D1074A;C1106S	increasing interaction
